Here are results for three substances from patent US20240218057A1.

Holding throughout (assay): cell-based or functional assay
For assay [1], the target named is wildtype SARS-COV-2 spike protein on pseudotyped virus (SARS-CoV-2) (UniProt P0DTC2).
The target of assay [2] is wildtype SARS-CoV-2 spike protein (pseudovirus) (SARS-CoV-2) (UniProt P0DTC2).
Assay [3] has as its target SARS-COV-2 spike protein (pSARS-COV-2-SΔ19) on HIV-1 pseudotyped particles (SARS-COV-2) (UniProt P0DTC2).
Assay [4] concerns the target SARS-CoV-2 spike protein (wild type, pSARS-COV-2-SΔ19) on HIV-1 pseudotyped particles (SARS-CoV-2) (UniProt P0DTC2).

In assay [1], C135 (antibody) showed a neutralization IC50 of 0.00859 µg/mL and a neutralization IC90 of 0.0406 µg/mL.

Regarding C144 (antibody), in assay [2], the IC50 neutralization came out at 0.0037 µg/mL and the IC90 neutralization turned out to be 0.0159 µg/mL. In assay [3], the IC50 was 0.00286 µg/mL and the IC90 is 0.0405 µg/mL. In assay [1], this substance showed a neutralization IC50 of 0.00374 µg/mL and a neutralization IC90 of 0.0159 µg/mL. Moreover, in assay [4], the Neutralization activity IC50 is 0.00286 µg/mL and the Neutralization activity IC90 turned out to be 0.0405 µg/mL.

With C121 (antibody), in assay [1], the neutralization IC50 amounted to 0.0051 µg/mL and the neutralization IC90 stood at 0.0198 µg/mL.

Usually IC50 stands for the concentration that inhibits the measured activity by half. A higher IC50 goes with weaker potency in that assay. By IC90 is commonly meant the point of the concentration-response curve where the effect stands at 90%. A higher IC90 goes with a need for much substance.
